{
  "source": "patent US20170029474A1",
  "about": "(OSAKA UNIVERSITY, published 2017)",
  "key": {"CRM197 [1]": {"target": "T1, CRM197 (Corynebacterium diphtheriae, UniProt P00587 26-560)", "assay": "SPR, Biacore T200, His-tagged HB-EGF captured on NTA chip"}, "CRM197 [2]": {"target": "T1, CRM197", "assay": "SPR, Biacore T200, His-tagged HB-EGF captured on NTA chip", "remark": "listed apart in the source"}},
  "note": "Where two headings read alike, the source gives them in different places.",
  "data": [
    {"binder": "C-terminal His-tagged HB-EGF lacking the heparin-binding domain (ligand, Captured on a Ni2+ NTA sensor chip for Biacore; also called C-terminal His-tagged recombinant HB-EGF; Δ••-EGF-His) DLQEADLDLLRVTLSSKPQALATPNKEEHGDPCLRKYKDFCIHGECKYVKELRAPSCICHPGYHGERCHGLSLP", "values": [
      {"measurement": "Ka", "setting": "CRM197 [1]", "value": "9.8e+08", "unit": "M⁻¹"},
      {"measurement": "Ka", "setting": "CRM197 [2]", "value": "9.22e+08", "unit": "M⁻¹"}
    ]}
  ]
}
